# Results published in US20250346890A1, “LEUKEMIA TREATMENT” (Deutsches Krebsforschungszentrum, priority 2019, published 2025).
# How the values were obtained:
# Type in all cases: cell-based, human
# BMP4 signaling = assay: BRE reporter assay in HEPG2 cells stimulated by BMP4
# Procedure: BRE luciferase assays were executed using 300,000 ml^−1 of HEPG2 cells in 24-well plates. PGL3-BRE-Luciferase (500 ng ml^−1) and pRL-TK-Renilla plasmids (50 ng ml^−1) were transfected using Lipofectamine 3000. After 24 hours, cells were serum starved 2 hours and stimulated 14-16 hours with 80 ng ml^−1 recombinant human BMP4 protein (R&D systems 314-BP) along with AP tagged RSPO1-4 or flag tagged RSPO1-3 conditioned medium. Luciferase activity was measured with the Dual luciferase reporter assay system (Promega E1960). Firefly luminescence (BRE) was normalized to Renilla. TOPFlash luciferase assays were carried out as previously described (Berger et al. (2017), EMBO Rep 18, 712-725, doi: 10.15252/embr.201643585). […] Statistical analyses were made with the PRISM7 software using unpaired t-test or one-way ANOVA test. Not significant (ns) P>0.05, *P<0.05, **P<0.01, ***P<0.001, and ****P<0.0001.
# Smad1 = assay: Western blot of pSmad1 and tSmad1 in HEPG2 cells
# Procedure: Cultured cells were rinsed with cold PBS and lysed in Triton lysis buffer ([…] Tris-Cl, pH 7.5, 1% Triton X-100, 150 mM NaCl, 1 mM EDTA, 1 mM EGTA, 1 mM β-glycerophosphate, 1 mM Na3 VO4) or RIPA buffer with complete Protease Inhibitor Cocktail (Roche 11697498001). Lysates were mixed with Laemmli buffer with β-mercaptoethanol and boiled at 95° C. for 5 min to prepare SDS-PAGE samples. Western blot images were acquired with SuperSignal West pico ECL (ThermoFisher 34580) or Clarity Western ECL (Biorad 1705061) using LAS-3000 system (FujiFilm). Quantification of blots was done using ImageJ software.
# THP-1 cells = assay: Monocyte-macrophage differentiation of THP-1 cells (FACS / qRT-PCR of CD14, CD11B); settings: THP-1 cells, co-treatment of ATRA with RSPO2
# Procedure: Cultured cells were lysed in Macherey-Nagel RAI buffer containing 1% β-mercaptoethanol and total RNAs were isolated using NucleoSpin RNA isolation kit (Macherey-Nagel 740955). Reverse transcription and PCR amplification were performed. Primers used in this study are listed in Supplementary Table 1. Graphs show relative gene expressions to GAPDH. […] Statistical analyses were performed using PRISM7 software with unpaired t-test or one-way ANOVA test.
# For analyzing macrophage differentiation of THP-1, cells were harvested, pelleted and resuspended in ice-cold blocking buffer (PBS supplemented with 1% BSA and 0.1% NaN3). Cells were treated with Fc Receptor Binding Inhibitor as recommended by the manufacturer (eBioscience 14916173) and stained directly with FITC/APC-conjugated antibodies diluted in blocking buffer or with non-conjugated primary antibodies followed by fluorochrome-labeled secondary antibodies. Isotype-matched antibodies were used as controls. Dead cells were excluded by counterstaining with propidium iodide. For analyzing apoptosis of THP-1, cells were fixed in 4% PFA, permeabilized by MeOH and blocked with PBS supplemented with 1% BSA and 0.1% Tween-20. Cells were stained with anti-active Caspase-3 antibody and fluorochrome-labeled secondary antibody. FACS Samples were analyzed with FACSCalibur or FACSCanto (BD Biosciences). 10,000 events per samples were acquired, and results were processed with Cell Quest or FACSDiva software (BD Biosciences). For BMP4 stimulation, cells were treated with 5 and 25 ng ml^−1 recombinant human BMP4 protein (R&D systems 314-BP). 100, 300 and 1000 nM LDN […] (Tocris 6053) were used for rescue assay. For the THP-1 cell number quantification and differentiation validation in vivo, bone marrow cells were harvested from tibias of NSG mice and red blood cells were removed by ACK Lysing Buffer (Gibco A1049201). Cells were stained and analyzed as above. Here, 50,000 PI-negative events per samples were acquired.
# THP-1 cells were treated with 0.3, 1.0 and 3.0 μg ml^−1 goat polyclonal anti-RSPO2 antibodies (R&D systems AF3266) or goat polyclonal GFP antibodies (ABIN 100085). After 48 hours, medium was replaced including fresh antibodies—and incubated another 24 hours. Western blot analysis and FACS analyses were performed as discussed above.
# The sequences of shRSPO2 and shControl (Table 1) were synthesized, inserted into the transfer plasmid Tet-pLKO-puro (Addgene 21915) and validated by sequencing. Lentivirus was produced with the 3rd generation lentiviral system according to the protocol available at the Trono lab as described (www.epfl.ch/labs/tronolab/). THP-1 cells were infected with lentivirus with 8 μg ml^−1 Polybrene (Sigma TR-1003) and selected with 0.5 μg ml^−1 puromycin (Calbiochem 540411). Single cell clones were obtained by limiting dilutions. The shRNA expression of clones was validated by monitoring RSPO2 expression after doxycycline treatment (1.0 μg ml^−1) for 3 days.
molecule,measurement,setting,value
"RSPO2: human R-spondin 2 protein (SEQ ID NO:1); conditioned medium or recombinant (Peprotech 120-43) (protein, listed as Homo sapiens) MQFRLFSFALIILNCMDYSHCQGNRWRRSKRASYVSNPICKGCLSCSKDNGCSRCQQKLFFFLRREGMRQYGECLHSCPSGYYGHRAPDMNRCARCRIENCDSCFSKDFCTKCKVGFYLHRGRCFDECPDGFAPLEETMECVEGCEVGHWSEWGTCSRNNRTCGFKWGLETRTRQIVKKPVKDTILCPTIAESRRCKMTMRHCPGGKRTPKAKEKRNKKKKRKLIERAQEQHSVFLATDRANQ",BMP4 signaling,"BMP4 signaling; HEPG2 cells, BMP4 stimulation, treatment with RSPO protein",decreased BMP4 signaling
same,inhibition of BMP signaling by RSPO2 after knockdown of WNT pathway components,"BMP4 signaling; siRNA knockdown of β-catenin, LGR4/5, LRP5/6, DVL1/2/3 and ROR1/2",remained unaffected
same,phosphorylation of Smad1,Smad1,decreased phosphorylation of Smad1
same,"ATRA-induced Smad1-phosphorylation, ID1 and CD11B expression",THP-1 cells,reverted these effects
